Data: patent US8367615B2, “Stimulation of neuron regeneration by secretory leukocyte protease inhibitor” (Research Foundation of City University of New York, priority 2006, dated 2013)

Key:
DRG neurons = test: Microarray analysis of gene expression in DRG neurons; assay type: cell-based; conditions: DRG neurons that received dbcAMP
From the text: The effects of cAMP were the result of its ability to induce gene transcription.

[1] = tested on: transected nerve fibers in the spinal cord; conditions: in vivo injection; previously established (WO 01/85981); cited from earlier work
older neurons = conditions: cAMP levels elevated by treatment, previously established (WO 01/85981); cited from earlier work
[2] = tested on: dorsal root ganglia (DRG) neurons; test: Neurite outgrowth of DRG neurons on MAG-expressing CHO cell monolayers; assay type: cell-based, rat
Description: FIGS. 1A and 1B are a panel of four photographs and a bar graph, respectively, showing that SLPI reverses inhibition by MAG for dorsal root ganglia (“DRG”) neurons. DRG neurons from post-natal day 6 rats were treated with 2, 5, or 10 μg/ml SLPI, plated onto monolayers of either control or MAG-expressing Chinese hamster ovary (“CHO”) cells, and incubated for 16 hours. Neurons were stained for βIII tubulin and neurite length was quantified using the METAMORPH image analysis software. Data are presented ±SEM.

cortical neurons = test: Neurite outgrowth of cortical neurons on central nervous system myelin; assay type: cell-based; conditions: 5 and 10 μg/ml, post-natal day 1 rat cortical neurons on CNS myelin
Description: FIGS. 2A and 2B are a panel of four photographs and a bar graph, respectively, showing that SLPI enhances neurite outgrowth on myelin for cortical neurons. Cortical neurons from post-natal day 1 rats were treated with 1 mM dibutyrl cAMP (dbcAMP) and 5 or 10 μg/ml SLPI, and plated onto 8-well chamber slides coated with central nervous system myelin (1 μg per well). Neurons were incubated for 24 hours and immunostained for βIII tubulin. The bar graph depicts average neurite length ±SEM.
Unlike DRG neurons, cortical neurons were inhibited by MAG and myelin at post-natal day 1.

adult DRG neurons = test: In vivo intrathecal delivery, then neurite outgrowth of adult DRG neurons on MAG-expressing CHO cells; parameters: species or system rat; conditions: 2 and 5 μg/kg/hr intrathecal for 24 hours in adult rats, neurons plated on MAG-expressing CHO cells
Description: FIGS. 3A and 3B are a panel of four photographs and a bar graph, respectively, showing that in vivo delivery of SLPI overcomes MAG inhibition for adult DRG neurons. DRG neurons from adult rats that received infusion of 1, 2, or 5 μg/kg/hr SLPI into the spinal cord for 24 hours were plated onto control or MAG-expressing CHO cells. Neurons were incubated for 16 hours and stained for βIII tubulin. The bar graph depicts average neurite length ±SEM.
SLPI was delivered to the spinal cord by a pump.

[3] = Tolerability on administration to live animals; assay type: in vivo
optic nerve = test: Optic nerve crush, GAP-43 staining of regenerating axons; assay type: in vivo, rat; conditions: single intravitreal injection of 10 micrograms after optic nerve crush; two weeks; adult male Fischer rats
Description: SLPI's ability to promote axonal regeneration in vivo in the optic nerve was investigated. Adult male Fischer rats (200-300 g, Charles River Laboratories) were anesthetized with isofluorane and placed in a stereotaxic frame. Optic nerve crush was performed as follows. The right optic nerve was exposed and the meninges were removed. The nerve was then crushed for 10 seconds with fine forceps at a distance of 2 mm behind the eye. Special care was taken to avoid injury to the opthalmic artery. After closing the incision, the animal received a single intravitreal injection of either 5 microliters sterile saline or 10 micrograms of recombinant human SLPI (R&D Systems; 2 micrograms/microliter in 5 microliters sterile saline) in the right eye. After a two-week post-surgical survival period, the animals were sacrificed by transcardial perfusion with 4% paraformaldehyde and the optic nerves were dissected. Nerves were sectioned at a thickness of 20 microns and thaw-mounted onto gelatin-coated slides. Sections were immunostained for GAP-43 using a polyclonal sheep anti-GAP-43 antibody diluted 1:1000 in a solution of 5% rabbit serum, 2% BSA, and 0.1% Tween in Tris-buffered saline (TBS). […] Slides were coverslipped with Permafluor mounting medium (Thermo) and viewed under fluorescence. […]

## CCCC(=O)Nc1ncnc2c1ncn2[C@@H]1O[C@@H]2COP(=O)(O)O[C@H]2[C@H]1OC(=O)CCC [dbcAMP, dibutyrl cAMP]
DRG neurons
  expression of SLPI: greatly increased
[1]
  regeneration of transected nerve fibers in the spinal cord: led to regeneration
Older neurons
  inhibition by MAG and myelin of nerve fiber growth: inhibition was reversed

B1: secretory leukocyte protease inhibitor (protein, UniProt P03973 26-132, looked up)
Antileukoproteinase: SGKSFKAGVCPPKKSAQCLRYKKPECQSDWQCPGKKRCCPDTCGIKCLDPVDTPNPTRRKPGKCPVTYGQCLMLNPPNFCEMDGQCKRDLKCCMGMCGKSCVSPVKA
[2]; 5 and 10 μg/ml, post-natal day 6 rat DRG neurons on MAG-expressing CHO cells
  neurite outgrowth on MAG, most effective concentrations: most extensive growth
[2]; post-natal day 6 rat DRG neurons treated with 2, 5 or 10 μg/ml, on MAG-expressing CHO cells, 16 hours
  neurite outgrowth on MAG: significantly increased
Cortical neurons
  neurite outgrowth on myelin, effect compared with 1 mM dbcAMP: equivalent to that seen with dibutyryl AMP (dbcAMP)
Cortical neurons; 24 hours
  neurite outgrowth on myelin: significantly increased
Adult DRG neurons
  MAG inhibition of DRG neurons after intrathecal delivery: blocks MAG inhibition
Adult DRG neurons; 16 hours
  neurite outgrowth after intrathecal delivery: significant increases
[3]
  toxicity when administered to live animals: non-toxic
Optic nerve
  GAP-43 positive axons in the crushed optic nerve: numerous GAP-43 positive axons
  axons extending beyond the lesion site: several of them extend beyond the lesion site
